Key:
Assay in all cases: EMSA; 25 mM Tris pH 8.0, 100 mM KCl, 1.5 mM MgCl2, 0.2 mM EGTA, 0.05% Nonidet P-40, 1 mM DTT, 5% glycerol, 50 ug/ml heparin; 30 C 30 min, then ice 10 min; 1 nM RNA; 6% native PAGE in cold room
YBX1 [1] = biological target: T1, YBX1 (UniProt P67809 1-324); conditions: protein: recombinant; tags: His6-MBP (N-terminal vector tag); label: 5'-IRD800CWN
YBX1 [2] = biological target: T1, YBX1; conditions: protein: recombinant; tags: His6-MBP (N-terminal vector tag); label: 5'-IRD800CWN; remark: listed apart in the source
YBAP1 = YBAP1 (UniProt Q07021 74-282); conditions: protein: recombinant; tags: His6-MBP; chain copies: 3; label: 5'-IRD800CWN
Sequence of YBAP1 (Q07021 74-282): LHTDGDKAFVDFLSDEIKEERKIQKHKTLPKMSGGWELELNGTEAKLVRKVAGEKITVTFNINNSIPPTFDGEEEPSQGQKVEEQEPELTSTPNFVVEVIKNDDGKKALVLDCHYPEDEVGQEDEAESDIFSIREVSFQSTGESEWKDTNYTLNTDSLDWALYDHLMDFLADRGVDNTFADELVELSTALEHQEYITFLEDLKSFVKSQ

YBX1(F85A) = YBX1(F85A) (UniProt P67809 1-324, F85A); conditions: protein: recombinant; tags: His6-MBP; label: 5'-IRD800CWN
Sequence of YBX1(F85A) (P67809 whole entry F85A): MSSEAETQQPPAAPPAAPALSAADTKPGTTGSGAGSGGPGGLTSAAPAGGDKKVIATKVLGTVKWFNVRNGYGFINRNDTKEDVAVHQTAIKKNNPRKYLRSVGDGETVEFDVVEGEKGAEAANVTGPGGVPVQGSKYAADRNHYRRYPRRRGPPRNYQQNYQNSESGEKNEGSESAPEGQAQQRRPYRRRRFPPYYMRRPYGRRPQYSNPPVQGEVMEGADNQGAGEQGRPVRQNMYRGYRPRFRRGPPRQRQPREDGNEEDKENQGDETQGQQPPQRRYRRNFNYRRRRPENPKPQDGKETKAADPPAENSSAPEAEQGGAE

YBX1 [3] = biological target: T1, YBX1; conditions: protein: recombinant; tags: His6-MBP (N-terminal vector tag); label: 5'-IRD800CWN; remark: listed apart in the source

T1 sequence (P67809 whole entry): as the sequence (P67809 whole entry F85A) above, with A85F counted along it

Binder | binding signal (YBX1 [1]) | Kd (YBX1 [2]) [nM] | binding result (YBAP1) | binding result (YBX1(F85A)) | binding signal (YBX1 [3]) [fold weaker than miR223]
UGUCAGUUUUGAUAUAUUAGGU (ssRNA) [miR190sort] | ~8 fold stronger than miR190 | – | – | – | –
UGUCAGUUUGUCAAAUACCCCA (ssRNA) [miR223 (hsa-miR-223-3p)] | – | 4.2 | binds | no binding | –
UGAGACAUUGUCAAAUACCCCA (ssRNA) [miR223mut] | ~27 fold weaker than miR223 | – | – | – | –
UGAUAUGUUUGAUAUAUUAGGU (ssRNA) [miR190 (hsa-miR-190-5p)] | – | – | no binding | – | ~140
